The chains are these.
B1: Myelin regulatory factor homolog 1 (Caenorhabditis elegans), G5EFI7 (parent)
chain: MSSSDLLKGEFDGLNSEHFNMMQYLTQDTDEDDGSMVSPTSSADSMHQNLGVQQQQQQMLQAQQRQNQNGIFQPRRFPESPAMTDPCGNVSSSSSSSHHSDPMFSPNEFNGYAGANDNGNQTMNNIQSQQLSQQQHQQTRGGNLMMPQQSSIHAQMQNMNAPQFWSQPGTAAVNQPTNTLAQLNLFNIIRGGADSGMPSPVLEMPRKRSRLDTPCETPRIAPSFAGIDGFPDENYSQQQAIRFSKFQEEQWSPLYDINAQPLQQLQVHVVADKGFNYNSNDNCFVNQKKNHFQISVNVEASDTMPPKYVNFNNRLVPIRDFKLSFCGVKAEMPSSEITIRQSRADRKPHTHTPVLFEIQERRMTKVCVPRLHFSETTLNNQRKQKNRPNPEQKFFLLVVRLFASIDESEHGVLIQSYASEKVIVRATNPGSFEPQDTDIGWQRNGGALYTQGAVSVGTEHQVESAKLTVAGDIYMSGRIINPSDIRLKEAITERETAEAIENLLKLRVVDYRYKPEVADIWGLDEQQRHRTGLIAQELQAVLPDAVRDIGDYLTIDEGRVFYETVMATQQLCRMTGDLDSKIDEKVAEISRRLNEYAVRKKLASSMASNLNGDNKSLSYSRCSLTSTATNATSQPKRSRKHRAIKQAQSCGSRLSQGTVVTLVSIMAACLLAMSALYVLDWHNRNYGYHQHFETNTPSTKGELANLVISPANFMPSFQPDAPILLEKCFNPSCKTYCCTDTPPVVEDSRAIATHGLDNGDEVYPESPSNRTNGIARAPNLEHMAFETGVEIRIPALNVTLDQRYCVERSCNKRKGIFNVFVPVSRYMPDVALEIEIKAPISKVVSNCGAFPSTEFNHKVCPLSRTQQSESPVPTSTRLFDNIFELSMGSFIQSAYRFRVGYSTETCFSEDSNGSYEEYNLIFYRMCTLSSS
partner: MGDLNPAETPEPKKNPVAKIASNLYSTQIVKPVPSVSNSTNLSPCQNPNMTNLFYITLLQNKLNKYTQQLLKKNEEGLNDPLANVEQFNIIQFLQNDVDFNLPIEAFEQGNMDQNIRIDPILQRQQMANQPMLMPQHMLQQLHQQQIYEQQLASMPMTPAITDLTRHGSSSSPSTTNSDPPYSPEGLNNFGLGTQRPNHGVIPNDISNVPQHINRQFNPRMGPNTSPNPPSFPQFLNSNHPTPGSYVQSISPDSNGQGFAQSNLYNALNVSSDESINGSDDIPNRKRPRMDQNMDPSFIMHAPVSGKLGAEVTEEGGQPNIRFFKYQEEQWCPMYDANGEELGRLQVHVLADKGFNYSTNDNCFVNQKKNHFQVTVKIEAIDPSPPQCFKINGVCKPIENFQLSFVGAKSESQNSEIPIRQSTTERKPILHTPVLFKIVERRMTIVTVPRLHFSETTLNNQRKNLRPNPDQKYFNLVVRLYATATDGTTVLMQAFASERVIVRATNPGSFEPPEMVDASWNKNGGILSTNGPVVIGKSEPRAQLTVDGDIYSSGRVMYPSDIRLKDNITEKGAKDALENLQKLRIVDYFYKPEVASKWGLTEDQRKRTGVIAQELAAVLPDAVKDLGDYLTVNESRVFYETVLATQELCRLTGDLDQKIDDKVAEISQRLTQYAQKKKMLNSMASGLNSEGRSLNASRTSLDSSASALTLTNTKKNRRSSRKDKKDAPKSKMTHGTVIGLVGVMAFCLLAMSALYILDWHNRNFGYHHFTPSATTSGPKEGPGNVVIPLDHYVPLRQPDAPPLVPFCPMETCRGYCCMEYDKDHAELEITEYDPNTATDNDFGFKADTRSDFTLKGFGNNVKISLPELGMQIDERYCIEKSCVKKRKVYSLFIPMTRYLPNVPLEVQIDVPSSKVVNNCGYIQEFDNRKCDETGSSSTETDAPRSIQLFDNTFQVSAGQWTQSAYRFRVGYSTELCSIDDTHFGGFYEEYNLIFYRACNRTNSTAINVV

Variants of B1 are the subject of this assay. The conditions noted are these: with myrf2_caeel myrf-2, D9PTN5.
Regarding G274R, the “effect of a mutation on the interaction” value is reported as “with no effect”.
